From patent US8796209B2, “Compositions and methods related to anti-FGF agents” (The Regents of the University of California, priority 2005, dated 2014)

T1: FGFR1 D2D3 fragment (Homo sapiens, UniProt P11362)
T1 construct: A DNA fragment encoding amino acid residues 140 to 365 of the immunoglobulin-like domains D2 and D3 of FGFR; made in house
T1 sequence (P11362 140-365): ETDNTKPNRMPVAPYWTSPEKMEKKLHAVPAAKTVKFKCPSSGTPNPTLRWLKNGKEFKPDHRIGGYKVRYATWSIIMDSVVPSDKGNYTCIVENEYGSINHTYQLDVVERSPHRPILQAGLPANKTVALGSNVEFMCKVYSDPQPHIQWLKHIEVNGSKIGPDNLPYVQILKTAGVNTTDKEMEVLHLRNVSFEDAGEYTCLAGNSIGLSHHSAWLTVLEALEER


Assays:
[1] = Heparin binding assay (heparin sepharose column, NaCl step elution); conditions: for Heparin binding: phenotype of FGF-1 mutants, Table 2
Protocol: (§1) Partially purified wt and mutant FGF1 in 100 mM NaCl and 50 mM Tris (pH 7.4) were applied to a heparin sepharose column (1 ml bed volume). The column was washed with the same buffer and bound proteins were eluted with a stepwise increase in NaCl concentration from 0.1 to 1.2 M. Fractions were analyzed by SDS-polyacrylamide gradient gel electrophoresis. Proteins were visualized by Coomassie Brilliant Blue staining.
as §1, with “Wild type” for “Partially purified wt”, “FGF-1” for “FGF1”, “Tris/HCI” for “Tris”, “to” for “to a”, “with” for “with the”, “buffer,” for “buffer”

FGFR1 D2D3 fragment = target: T1, FGFR1 D2D3 fragment; experiment: Competition with biotinylated FGF-1 for immobilized FGF receptor D2D3 fragments; format: binding; conditions: for effect of the mutation on binding of the FGFR1 D2D3 fragment: competition with 1 μg/ml biotinylated FGF-1; for FGFR binding: phenotype of FGF-1 mutants, Table 2
Protocol: One μg/mi biotinylated FGF-1 and increasing concentrations of unlabelled FGF-1 or FGF-1 mutants were incubated for 1 h at RT with immobilized FGF receptor D2D3 fragments. Then the plate was washed and the bound biotinylated FGF were measured using an avidin conjugated HRP. Unlabeled wild-type (diamond) FGF-1, the R50E (square), 4xE (circle), and 3xA (triangle) FGF-1 mutants were used.
A DNA fragment encoding amino acid residues 140 to 365 of the immunoglobulin-like domains D2 and D3 of FGFR was amplified by PCR with the full length human FGFR1 cDNA in the pcDNA3 (gift from Ann Hanneken, the Scripps Research Institute, La Jolla, Calif.) as a template. A Bam HI restriction site was introduced at the 5′ end, Xho I site at the 3′ end of the cDNA fragment with the following primers: 5′-[…]-3′ (SEQ ID NO:5), 5′-[…]-3′ (SEQ ID NO:6). The resulting cDNA fragment was subcloned into the Bam HI/Xho I sites of the vector pET21a, and transformed into BL21 (DE3).
The protein was expressed as an insoluble protein, refolded as described (Plotnikov et al., 2000). The refolded protein was purified by affinity chromatography using the FGF-1 coupled to CNBr-activated Sepharose (Amersham Pharmacia Biotech) as an affinity matrix. FGF-1-Sepharose was incubated with crude refolded proteins 16 h at 4° C. After binding, the affinity matrix was washed with buffer containing 100 mM NaCl and 50 mM Tris (pH 7.4); and eluted with 1.2M NaCl, and 50 mM Tris (pH 7.4).

ERK1/2 = experiment: MAP kinase (ERK1/2) activation, western blot; format: cell-based, mouse; conditions: for ability to induce ERK1/2 activation: 5 ng/ml, 10 min, with or without 5 μg/ml heparin; for ERK1/2 activation: phenotype of FGF-1 mutants, Table 2
Protocol: Serum starved Balb3T3 cells were stimulated with wild-type and mutant FGF-1s (5 ng/ml) in the presence or absence of 5 μg/ml heparin for 10 min at 37° C. Cell lysates were analyzed by western blotting with anti-phospho ERK1/2 (anti phospho-ERK). Total amount of ERK1/2 in each lane was determined by blotting with anti-ERK1/2. Controls contain medium alone (none) or medium containing 10% fetal calf serum (FCS).
Balb3T3 cells were grown to confluence and serum starved in DMEM supplemented with 0.4% fetal calf serum for 24 h, and stimulated with wild type and mutant FGF-1 (5 ng/ml) in the presence or absence of 5 μg/ml heparin for 10 min at 37° C. Cells were washed twice with ice-cold PBS and lysed with the lysis buffer (20 mM Tris-HCI pH 8.0, 120 mM NaCl, 5 mM EDTA, 0.5% Triton-X100, 1 mM PMSF, 1 mM DTT, 10 mM NaF, 1 mM Na3VO4, 10 μg/ml aprotinin). Cell lysates were separated on 4-12% NuPAGE Bis-Tris Gel (invitrogen). Proteins were then transferred to PVDF membranes (Milli-pore), probed with antibodies, and bound antibodies were detected by HRP-conjugated anti-mouse IgG and chemiluminescence HRP substrate (Pierce). The antibodies used were anti-phospho-ERK1/2, anti-ERK1/2 (Cell Signaling Technology).

Balb 3T3 cells = experiment: Scratch wound healing assay; format: cell-based, mouse; conditions: for Wound healing: phenotype of FGF-1 mutants, Table 2; for effect on migration of Balb3T3 cells in scratch wound healing assays: with 5 μg/ml heparin, 24 h
Protocol: Confluent serum-starved Balb 3T3 cells were scratched. After washing with serum-free medium, cells were incubated in DMEM containing 5 μg/ml heparin and 5 ng/ml wild-type or mutant FGF-1s for 24 h at 37° C. Controls contain medium alone (none) or medium containing 10% fetal calf serum (FCS).
Balb 3T3 cells were plated into 6-well cell culture plate. Cells were allowed to grow in DMEM containing 10% fetal calf serum for overnight, and then cells were washed with serum-free medium and starved for 24 h. A scratch was made across the cell layer using a pipette tip. After washing with serum-free medium twice, DMEM containing 10 ng/ml wild type or mutant FGF-1 together with 5 μg/ml heparin were added to cells. Plates were photographed at 0, 6, 12, and 24 h.

[2] = system: Human microvascular endothelial (HMVE) cells; experiment: Tube formation by endothelial cells on Matrigel; format: cell-based; conditions: 24 h
Protocol: Digital images were taken by using a fluorescent microscope and analyzed by using ImageJ, using human microvascular endothelial (HMVE) cells added to the matrix-coated wells of 96-well plates at 2×10^4 cells/well in medium M-131 plus 0.1% hydrocortisone and 0.1% FBS for. Cells were incubated for 24 h in the presence of wt or mutant FGF. To enhance images, calcein AM was added to the medium.
Wells of 96-well FluoroNunc black plates were coated with 50 μl of matrigel basement membrane matrix (BD Bioscience) and allowed to gel at 37° C. for 30 min. Endothelial cells growing on the tissue culture plastic were trypsinized, washed, and added to the matrix-coated wells at 2×10^4 cells/well. Plating was performed in medium M-131 plus 0.1% hydrocortisone and 0.1% FBS for Human microvascular endothelial (HMVE) cells. Cells were incubated for 24 h in the presence of wt or mutant FGF. To enhance images, calcein AM (Invitrogen) was added to the medium (10 μg/ml) and incubated for 15 min at 37° C. Digital images were taken by using a fluorescent microscope and analyzed by using ImageJ. (FIGS. 9A and 9B).

effect of the mutation on heparin binding to FGF-1 [1]	Heparin binding [1]	effect of the mutation on binding of the FGFR1 D2D3 fragment (FGFR1 D2D3 fragment)	FGFR binding (FGFR1 D2D3 fragment)	Molecule	ability to induce ERK1/2 activation (ERK1/2)	ERK1/2 activation (ERK1/2)	Wound healing (Balb 3T3 cells)	effect on migration of Balb3T3 cells in scratch wound healing assays (Balb 3T3 cells)	tube formation by endothelial cells on matrigel [2]
did not	Normal	did not block	Normal	R50E: FGF-1 mutant with the Arg-50 to Glu (R50E) mutation	much less ability	Low	Low	effectively blocked	block tube formation
	Normal		Normal	Wild type: human FGF-1 (acidic FGF), wild type, expressed in E. coli		Normal	Normal		enhanced
completely blocked	Low	did not block	Normal	4xE: FGF-1 mutant, Lys127/Lys128/Lys133/Arg134 simultaneously to Glu (protein) FNLPPGNYKKPKLLYCSNGGHFLRILPDGTVDGTRDRSDQHIQLQLSAESVGEVYIKSTETGQYLAMDTDGLLYGSQTPNEECLFLERLEENHYNTYISKKHAEKNWFVGLEENGSCEEGPRTHYGQKAILFLPLPVSSD	did not induce ERK1/2 activation at all	Low	Low	effectively blocked	
did not	Normal	effectively blocked	Low	3xA: FGF-1 mutant, three residues in the FGFR binding site (Glu102/Tyr109/Asn110) to Ala (protein) FNLPPGNYKKPKLLYCSNGGHFLRILPDGTVDGTRDRSDQHIQLQLSAESVGEVYIKSTETGQYLAMDTDGLLYGSQTPNEECLFLARLEENHAATYISKKHAEKNWFVGLKKNGSCKRGPRTHYGQKAILFLPLPVSSD	did not show ERK1/2 activation	Low	Low	effectively blocked	
